According to doi:10.1101/577460 (bioRxiv, 2019):
Residue numbers refer to the chain shown, from its start. Names and notes keep the numbering of the source.

Legend:
[1] = molecular target: T1, barrier-to-autointegration factor (BAF) (human, UniProt O75531 1-89); test: SEC
T1 sequence (looked up): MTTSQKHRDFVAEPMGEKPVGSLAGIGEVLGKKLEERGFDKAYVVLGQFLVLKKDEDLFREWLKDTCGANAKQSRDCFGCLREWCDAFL

full-length human CHMP7 = molecular target: T2, full-length human CHMP7 (human, UniProt Q8WUX9 1-453); test: cross-linking
T2 sequence (looked up): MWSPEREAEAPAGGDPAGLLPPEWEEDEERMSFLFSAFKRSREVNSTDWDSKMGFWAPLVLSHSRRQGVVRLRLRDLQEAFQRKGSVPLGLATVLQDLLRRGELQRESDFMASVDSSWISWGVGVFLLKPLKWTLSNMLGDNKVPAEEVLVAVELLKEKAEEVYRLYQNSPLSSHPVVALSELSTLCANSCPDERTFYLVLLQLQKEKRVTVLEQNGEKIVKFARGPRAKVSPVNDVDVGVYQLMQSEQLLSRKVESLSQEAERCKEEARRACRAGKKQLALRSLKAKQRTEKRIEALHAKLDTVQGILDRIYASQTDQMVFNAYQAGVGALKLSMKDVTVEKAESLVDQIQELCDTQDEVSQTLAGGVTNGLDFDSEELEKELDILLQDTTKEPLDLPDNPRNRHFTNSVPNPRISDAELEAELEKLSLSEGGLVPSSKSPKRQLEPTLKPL

co-sedimentation = molecular target: the molecule itself; test: co-sedimentation
negative stain EM = molecular target: the molecule itself; test: negative stain EM

B1: LEM2_(1-72) (domain or fragment, human, UniProt Q8NC56 1-72, looked up)
chain: MAGLSDLELRRELQALGFQPGPITDTTRDVYRNKLRRLRGEARLRDEERLREEARPRGEERLREEARLREDA
Q: Does B1 bind [1]?
A: Result: binds

B2: His6-SUMO-LEM2_(395-503) (domain or fragment, human, UniProt Q8NC56 395-503, looked up)
chain: ILLKYRWRKLEEEEQAMYEMVKKIIDVVQDHYVDWEQDMERYPYVGILHVRDSLIPPQSRRRMKRVWDRAVEFLASNESRIQTESHRVAGEDMLVWRWTKPSSFSDSER
Q: Does B2 bind (full-length human CHMP7)?
A: Result: binds

B3: CHMP7_(R270E + I312E) (natural protein, human, UniProt Q8WUX9 1-453, looked up)
chain: T2 sequence (looked up) with R270E, I312E
Q: Does B3 bind (co-sedimentation)?
A: Result: binds

B4: CHMP7_(R270E + V339D) (natural protein, human, UniProt Q8WUX9 1-453, looked up)
chain: T2 sequence (looked up) with R270E, V339D
Q: Does B4 bind (co-sedimentation)?
A: Result: binds

B5: CHMP7_(229-453) (domain or fragment, human, UniProt Q8WUX9 229-453, looked up)
chain: AKVSPVNDVDVGVYQLMQSEQLLSRKVESLSQEAERCKEEARRACRAGKKQLALRSLKAKQRTEKRIEALHAKLDTVQGILDRIYASQTDQMVFNAYQAGVGALKLSMKDVTVEKAESLVDQIQELCDTQDEVSQTLAGGVTNGLDFDSEELEKELDILLQDTTKEPLDLPDNPRNRHFTNSVPNPRISDAELEAELEKLSLSEGGLVPSSKSPKRQLEPTLKPL
Q: Does B5 bind (negative stain EM)?
A: Result: binds
